Measured values: patent US20120213799A1 (EISAI R AND D MANAGEMENT, published 2012)
Where a chain is given by its changes, count along the chain named.

T1: soluble hFKN-SEAP (extracellular region of human fractalkine conjugated to secreted alkaline phosphatase) (human, UniProt P78423 25-341)
T1 construct: Used as culture supernatant of HEK293E cells; also called soluble FKN conjugated to SEAP; not shown: secreted alkaline phosphatase (SEAP) from the vector pcDNA3.1 (+) dSalI SEAP
T1 sequence: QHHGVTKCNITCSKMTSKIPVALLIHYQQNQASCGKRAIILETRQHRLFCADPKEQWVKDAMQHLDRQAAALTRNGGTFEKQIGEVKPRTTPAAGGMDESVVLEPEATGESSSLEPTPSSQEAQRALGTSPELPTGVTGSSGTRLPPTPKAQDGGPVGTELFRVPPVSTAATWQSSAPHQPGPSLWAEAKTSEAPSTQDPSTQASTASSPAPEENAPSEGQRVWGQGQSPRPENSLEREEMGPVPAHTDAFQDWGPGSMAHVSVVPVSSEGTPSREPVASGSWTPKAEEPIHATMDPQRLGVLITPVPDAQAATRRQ

T2: recombinant human FKN (R&D Systems, Catalog No. 362-CX/CF) (human, UniProt P78423 25-100)
T2 sequence: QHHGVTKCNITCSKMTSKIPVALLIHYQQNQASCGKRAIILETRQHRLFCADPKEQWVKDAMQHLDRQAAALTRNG

T3: R68A mutated FKN-SEAP-His (human, UniProt P78423 25-340)
T3 construct: also called R68A mutant; not shown: The SEAP reporter, the residues encoded by the NotI junction and the C-terminal (His)10 tag
T3 sequence: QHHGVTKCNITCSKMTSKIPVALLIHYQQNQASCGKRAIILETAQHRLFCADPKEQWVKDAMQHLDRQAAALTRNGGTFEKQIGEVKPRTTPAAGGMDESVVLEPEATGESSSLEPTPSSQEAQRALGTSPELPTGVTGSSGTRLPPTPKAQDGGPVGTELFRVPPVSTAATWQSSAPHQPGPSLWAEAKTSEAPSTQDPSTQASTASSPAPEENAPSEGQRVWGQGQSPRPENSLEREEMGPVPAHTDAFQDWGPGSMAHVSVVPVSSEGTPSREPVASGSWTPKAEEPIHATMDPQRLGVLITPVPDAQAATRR

B1: mouse anti-hFKN mAb clone 3A5-2 (antibody, mouse IgG2a, V domains shown)
VH: QVQLQQSGPELVKPGASVKMSCKASGYTFTNYYIHWVKQRPGQGLEWIGWIYPGDGSPKFNERFKGKTTLTADKSSNTAYMLLSSLTSEDSAIYFCATGPTDGDYFDYWGQGTTLTVSS
VL: DIQMTQSPASLSASVGETVTITCRASGNIHNFLAWYQQKQGKSPQFLVYNEKTLADGVPSRFSGSGSGTQYSLKINSLQPEDFGIYFCQQFWSTPYTFGGGTKLEIK
notes: Mouse monoclonal from hybridoma; Heavy chain was amplified with a mouse IgG2a CH3 primer and light chain with a mouse Ckappa primer; also called m3A5-2; m3A5-2 mAb
B2: mouse-human chimeric 3A5-2 mAb (antibody, human IgG2, V domains shown)
VH: B1 VH
VL: B1 VL
notes: also called chimeric mAb
B3: humanized anti-hFKN mAb H3-2L4-IgG2 (antibody, V domains shown)
VH: QVQLVQSGAEVKKPGASVKVSCKASGYTFTNYYIHWVKQAPGQGLEWIGWIYPGDGSPKFNERFKGRTTLTADKSTNTAYMLLSSLRSEDTAVYFCATGPTDGDYFDYWGQGTTVTVSS
VL: DIQMTQSPSSLSASVGDRVTITCRASGNIHNFLAWYQQKPGKAPKLLIYNEKTLADGVPSRFSGSGSGTDYTLTISSLQPEDFATYFCQQFWSTPYTFGGGTKVEIK
notes: also called H3-2L4 antibody
B4: humanized anti-hFKN mAb H3-L4-IgG2 (antibody, V domains shown)
VH: B3 VH with E89D
VL: B3 VL
B5: humanized anti-hFKN mAb H3-2L2-IgG2 (antibody, V domains shown)
VH: B3 VH
VL: B3 VL with L46F, I48V, D70Q
B6: humanized anti-hFKN mAb H3L2-IgG2 (antibody, V domains shown)
VH: B3 VH with E89D
VL: B3 VL with L46F, I48V, D70Q

Columns and labels:
[1] = biological target: T1, soluble hFKN-SEAP (extracellular region …); assay: BIACORE, mAb captured on Protein-A/G, soluble FKN-SEAP as analyte (also ELISA on captured hFKN-SEAP)
Protocol: (§1) BIACORE® assays were performed as follows. Recombinant Protein-A/G (Pierce Chemical) was immobilized on BIACORE® sensor chips (CM5) that were pre-activated with amine coupling reagents (GE Healthcare). Purified mAbs were added into the sensor chips at a concentration of 0.2 μg/ml. Soluble antigens (soluble FKN conjugated to secreted alkaline phosphatase (SEAP) or control SEAP proteins) were added into the sensor chips at various concentrations (0 to 200 nM). Association of added antigens with mAbs captured on the sensor chips was monitored continuously, and the relative binding response of the antigens was determined using a BIACORE® A100 system (GE Healthcare).
ELISAs were performed as follows. Polyclonal anti-rabbit IgG antibody (Jackson ImmunoResearch Laboratories, Catalog No. 711-005-152) was coated on the wells of a 96-well plate (Nunc, Catalog No. 442402). After overnight incubation at 4° C., the wells were blocked with 1× Block-Ace (DainipponPharma) for 1 hour at room temperature. After washing three times with 0.05% Tween 20/PBS, 10 nM rabbit polyclonal anti-PLAP antibody (Biomeda) was added to the wells (50 μl/well). […] An equal volume of stopping solution (2 M H₂SO₄) was added to the wells and the optical density at 450 nm was read by a microplate reader (Arvo, PerkinElmer).

[2] = biological target: T1, soluble hFKN-SEAP (extracellular region …); assay: BIACORE, mAb captured by anti-human IgG, FKN-SEAP as analyte
Protocol: as §1
The BIACORE® assays were performed as described above. However, for humanized and chimeric mAbs, anti-human IgG mouse mAb (GE Healthcare) was used as the capturing antibody on the sensor chip.

[3] = biological target: T2, recombinant human FKN (R&D Systems, …); assay: cell-based or functional assay
[4] = biological target: T3, R68A mutated FKN-SEAP-His; assay: sandwich ELISA, H3-2L4 coated, mutant hFKN-SEAP added, alkaline phosphatase read at 405 nm
Protocol: Mouse anti-human FKN monoclonal antibodies (1F3, 1G1, 2B2, 3D5, 6D1, 7F6) and H3-2L4 antibody were coated on an ELISA plate (Nunc) overnight at 4° C. The antibody solutions were removed. PBS solution containing 1% BSA was added to each well and incubated for 1 hour at room temperature, and the wells were washed with Tris-buffered saline (pH 7.4) containing 0.05% Tween 20. The wild type and R68A mutated FKN-SEAP-His solution (1, 0.5, 0.25, 0.125 nM) were added to the wells and incubated for 2 hours at room temperature. The antigen solutions were removed and washed with washing solution. p-Nitrophenyl phosphate solution (Thermo Scientific) was added to each well and incubated for 30 minutes at room temperature. The reaction was terminated with 1N NaOH solution and absorbance at 405 nm was measured.

Row | Binder | binding result [2] | also measured
1 | B1 |  | binding result [1]: binds
2 | B2 | binds | 
3 | B3 |  | CTX (IC50, nM) [3]: 0.2 nM; binding result [4]: no binding (tested: 0.13 nM)
4 | B4 | binds | 
5 | B5 | binds | 
6 | B6 | binds | 
